In patent US20210284734A1 (SYMPHOGEN A S, published 2021):

T1: His-tagged cynomolgus PD-1 ECD (cynomolgus (Macaca fascicularis), UniProt Q15116 25-170 (human entry))
T1 construct: bought from Acro Biosystems; not shown: His tag
T1 chain: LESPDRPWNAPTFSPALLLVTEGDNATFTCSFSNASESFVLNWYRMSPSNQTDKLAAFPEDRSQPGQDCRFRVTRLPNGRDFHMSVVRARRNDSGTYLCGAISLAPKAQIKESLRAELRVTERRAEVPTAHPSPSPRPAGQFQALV

T2: cyno PD1 (limits assumed)
T2 construct: also called cynomolgus PD-1 expressed on CFSE-stained CHO-S cells
T2 receptor: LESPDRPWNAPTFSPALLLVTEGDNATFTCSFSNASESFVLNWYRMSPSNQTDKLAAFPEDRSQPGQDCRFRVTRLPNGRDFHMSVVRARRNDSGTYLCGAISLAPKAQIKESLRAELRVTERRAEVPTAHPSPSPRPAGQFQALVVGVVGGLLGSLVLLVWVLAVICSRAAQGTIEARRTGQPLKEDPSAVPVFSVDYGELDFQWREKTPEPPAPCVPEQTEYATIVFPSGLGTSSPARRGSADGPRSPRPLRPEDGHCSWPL


How the values were obtained:
[1] = target: T1, His-tagged cynomolgus PD-1 ECD; test: SPR, IgG captured, monovalent PD-1 ECD analyte
[2] = target: T3, His-tagged human PD-1 ECD (human, UniProt Q15116 25-170); test: SPR, IgG captured, monovalent PD-1 ECD analyte
T3 construct: bought from Acro Biosystems; not shown: His tag
T3 sequence (Q15116 25-170): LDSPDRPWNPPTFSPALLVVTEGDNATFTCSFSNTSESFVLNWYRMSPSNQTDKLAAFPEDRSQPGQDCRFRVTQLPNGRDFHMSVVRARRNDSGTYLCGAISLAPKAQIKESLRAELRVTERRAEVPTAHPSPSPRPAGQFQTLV

[3] = target: T4, human PD-1 expressed on CHO-S cells (human, UniProt Q15116 25-288); test: flow cytometry competition, 10 ug/ml antibody vs R-PE PD-L1-Fc on PD-1 CHO-S cells
T4 construct: also called PD-1-expressing cells
T4 sequence (Q15116 25-288 limits assumed): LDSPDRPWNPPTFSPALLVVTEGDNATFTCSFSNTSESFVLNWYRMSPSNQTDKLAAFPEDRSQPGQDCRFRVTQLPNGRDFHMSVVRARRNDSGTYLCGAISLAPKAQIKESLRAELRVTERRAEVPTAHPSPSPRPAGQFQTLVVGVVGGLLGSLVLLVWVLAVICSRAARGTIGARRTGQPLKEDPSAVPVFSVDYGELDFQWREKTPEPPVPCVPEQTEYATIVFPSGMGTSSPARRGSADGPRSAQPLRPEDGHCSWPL

[4] = target: T5, human PD-1 Fc fusion protein (Sino Biological) (human, UniProt Q15116 25-167, limits assumed); test: BLI, PD-1-Fc saturated with 10 ug/ml antibody, then PD-L1-Fc
T5 construct: bought; not shown: Fc of the commercial fusion protein
T5 sequence (Q15116 25-167 limits assumed): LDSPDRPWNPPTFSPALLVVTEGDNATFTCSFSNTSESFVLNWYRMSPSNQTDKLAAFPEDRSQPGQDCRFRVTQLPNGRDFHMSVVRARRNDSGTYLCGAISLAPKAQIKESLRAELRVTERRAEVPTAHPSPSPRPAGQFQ

[5] = target: T5, human PD-1 Fc fusion protein (Sino …); test: BLI, PD-1-Fc saturated with 10 ug/ml antibody, then PD-L2-Fc
cyno PD1 = target: T2, cyno PD1; test: flow cytometry, PD-1-transfected CHO-S cells; mAb 10 ug/ml, then R-PE PD-L1-Fc as blocked ligand
[6] = target: T4, human PD-1 expressed on CHO-S cells; test: as above
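For % of all cells in Q3 of panel PD-L1 binding (PD-L1-, CFSE+ cyno PD1 cells) in this document: human PD-1 CHO-S cells mixed with CFSE-labelled cyno PD-1 CHO-S cells, antibody binding read with APC anti-human IgG light chain detection.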
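For % of cyno PD1-gated cells in Q1 (mAb+, PD-L1-) in this document: human PD-1 CHO-S cells mixed with CFSE-labelled cyno PD-1 CHO-S cells, antibody binding read with APC anti-human IgG light chain detection.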
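For % of cyno PD1-gated cells in Q2 (mAb+, PD-L1+) in this document: human PD-1 CHO-S cells mixed with CFSE-labelled cyno PD-1 CHO-S cells, antibody binding read with APC anti-human IgG light chain detection.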
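For % of cyno PD1-gated cells in Q3 (mAb-, PD-L1+) in this document: human PD-1 CHO-S cells mixed with CFSE-labelled cyno PD-1 CHO-S cells, antibody binding read with APC anti-human IgG light chain detection.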

Binder	Kd [1] [nM]	koff [1] [s⁻¹]	kon [1] [M⁻¹ s⁻¹]	Kd [2] [nM]	koff [2] [s⁻¹]	kon [2] [M⁻¹ s⁻¹]	% PD-L1 binding inhibition [3] [%]	% Blocking [4] [%]	% Blocking [5] [%]	% of all cells in Q3 of panel PD-L1 binding (PD-L1-, CFSE+ cyno PD1 cells) (cyno PD1) [%]	% of cyno PD1-gated cells in Q1 (mAb+, PD-L1-) (cyno PD1) [%]	% of cyno PD1-gated cells in Q2 (mAb+, PD-L1+) (cyno PD1) [%]	% of cyno PD1-gated cells in Q3 (mAb-, PD-L1+) (cyno PD1) [%]	% of cyno PD1-gated cells in Q4 (mAb-, PD-L1-) (cyno PD1) [%]	% of all cells in Q1 of panel PD-L1 binding (PD-L1+, CFSE- human PD1 cells) [6] [%]	% of all cells in Q4 of panel PD-L1 binding (PD-L1-, CFSE- human PD1 cells) [6] [%]	% of human PD1-gated cells in Q1 (mAb+, PD-L1-) [6] [%]	% of human PD1-gated cells in Q2 (mAb+, PD-L1+) [6] [%]	% of human PD1-gated cells in Q3 (mAb-, PD-L1+) [6] [%]	% of human PD1-gated cells in Q4 (mAb-, PD-L1-) [6] [%]
12748.15381 (antibody, human IgG1, lambda, L234A L235A, V domains shown, humanized, IgG1 LALA, lambda) VH: EVQLLESGGGLVQPGGSLRLSCAASGFTFSDYAMNWVRQAPGKGLEWVAGIGNDGSYTNYGAAVKGRATISRDNSKNTLYLQMNSLRAEDTAVYYCASDIRSRNDCSYFLGGCSSGFIDVWGQGTLVTVSS VL: SYELTQDPAVSVALGQTVRITCSGGSSYSYGWFQQKPGQAPVTVIYESNNRPSDIPDRFSGSSSGNTASLTITGAQAEDEADYYCGNADSSSGIFGSGTKVTVLG	0.101	0.00047	4.6e+06	0.054	0.00017	3.2e+06														
12748.16124 (antibody, human IgG1, lambda, L234A L235A, V domains shown, alternative germline VL variant of 12748.15381; IgG1 LALA, lambda) VH: EVQLLESGGGLVQPGGSLRLSCAASGFTFSDYAMNWVRQAPGKGLEWVAGIGNDGSYTNYGAAVKGRATISRDNSKNTLYLQMNSLRAEDTAVYYCASDIRSRNDCSYFLGGCSSGFIDVWGQGTLVTVSS VL: SYELTQPPSVSVSPGQTARITCSGGSSYSYGWFQQKPGQAPVTVIYESNNRPSDIPERFSGSSSGTTVTLTISGVQAEDEADYYCGNADSSSGIFGSGTKVTVLG	0.081	0.00039	4.8e+06	0.047	0.00016	3.4e+06														
12760.15375 (antibody, human IgG1, lambda, L234A L235A, V domains shown, humanized, IgG1 LALA, lambda) VH: EVQLLESGGGLVQPGGSLRLSCAASGFTFSTFNMVWVRQAPGKGLEYVAEISSDGSFTWYATAVKGRATISRDNSKNTVYLQMNSLRAEDTAVYYCAKSDCSSSYYGYSCIGIIDAWGQGTLVTVSS VL: SYELTQDPAVSVALGQTVRITCSGGISDDGSYYYGWFQQKPGQAPVTVIYINDRRPSNIPDRFSGSSSGNTASLTITGAQAEDEADYYCGSYDSSAGVGIFGSGTKVTVLG	6.94	0.0072	1e+06	0.112	0.00014	1.2e+06														
12777.15382 (antibody, human IgG1, lambda, L234A L235A, humanized, IgG1 LALA, lambda) heavy: not shown light: SYELTQDPAVSVALGQTVRITCSGGDGSYGWFQQKPGQAPVTVIYDNDNRPSDIPDRFSGSSSGNTASLTITGAQAEDEADYYCGNADLSGGIFGSGTKVTVLGQPKANPTVTLFPPSSEELQANKATLVCLISDFYPGAVTVAWKADGSPVKAGVETTKPSKQSNNKYAASSYLSLTPEQWKSHRSYSCQVTHEGSTVEKTVAPTECS	0.681	0.00017	250000	0.337	8e-05	240000														
12892.13195 (antibody, human IgG1, lambda, L234A L235A, same as 12892.15378 but without the N-terminal SY of the light chain) heavy: not shown light: ELTQDPAVSVALGQTVRITCSGGGSAYGWYQQKPGQAPVTVIYYNNQRPSGIPDRFSGSSSGNTASLTITGAQAEDEADYYCGSYDSSAVGIFGSGTKVTVLGQPKANPTVTLFPPSSEELQANKATLVCLISDFYPGAVTVAWKADGSPVKAGVETTKPSKQSNNKYAASSYLSLTPEQWKSHRSYSCQVTHEGSTVEKTVAPTECS							88	88	77	55.2	42.9	3.36	1.28	52.5	0.59	43.8	56.1	5.3	0.45	38.2
12892.15378 (antibody, human IgG1, lambda, L234A L235A, humanized, IgG1 LALA, lambda) heavy: not shown light: SYELTQDPAVSVALGQTVRITCSGGGSAYGWYQQKPGQAPVTVIYYNNQRPSGIPDRFSGSSSGNTASLTITGAQAEDEADYYCGSYDSSAVGIFGSGTKVTVLGQPKANPTVTLFPPSSEELQANKATLVCLISDFYPGAVTVAWKADGSPVKAGVETTKPSKQSNNKYAASSYLSLTPEQWKSHRSYSCQVTHEGSTVEKTVAPTECS	2.34	0.00069	290000	0.737	0.00034	460000														
12777.13362 (antibody, human IgG1, lambda, L234A L235A, same as 12777.15382 but without the N-terminal SY of the light chain) heavy: not shown light: ELTQDPAVSVALGQTVRITCSGGDGSYGWFQQKPGQAPVTVIYDNDNRPSDIPDRFSGSSSGNTASLTITGAQAEDEADYYCGNADLSGGIFGSGTKVTVLGQPKANPTVTLFPPSSEELQANKATLVCLISDFYPGAVTVAWKADGSPVKAGVETTKPSKQSNNKYAASSYLSLTPEQWKSHRSYSCQVTHEGSTVEKTVAPTECS							69	93	90	50	51.8	11.4	0.74	36.1	2.56	45.3	59.6	14.3	0.28	25.9

More lines, now with the values ahead:

Kd [1] [nM]	koff [1] [s⁻¹]	kon [1] [M⁻¹ s⁻¹]	Kd [2] [nM]	koff [2] [s⁻¹]	kon [2] [M⁻¹ s⁻¹]	% PD-L1 binding inhibition [3] [%]	% Blocking [4] [%]	% Blocking [5] [%]	% of all cells in Q3 of panel PD-L1 binding (PD-L1-, CFSE+ cyno PD1 cells) (cyno PD1) [%]	% of cyno PD1-gated cells in Q1 (mAb+, PD-L1-) (cyno PD1) [%]	% of cyno PD1-gated cells in Q2 (mAb+, PD-L1+) (cyno PD1) [%]	% of cyno PD1-gated cells in Q3 (mAb-, PD-L1+) (cyno PD1) [%]	% of cyno PD1-gated cells in Q4 (mAb-, PD-L1-) (cyno PD1) [%]	% of all cells in Q1 of panel PD-L1 binding (PD-L1+, CFSE- human PD1 cells) [6] [%]	% of all cells in Q4 of panel PD-L1 binding (PD-L1-, CFSE- human PD1 cells) [6] [%]	% of human PD1-gated cells in Q1 (mAb+, PD-L1-) [6] [%]	% of human PD1-gated cells in Q2 (mAb+, PD-L1+) [6] [%]	% of human PD1-gated cells in Q3 (mAb-, PD-L1+) [6] [%]	% of human PD1-gated cells in Q4 (mAb-, PD-L1-) [6] [%]	Binder
						87	94	94	51.1	47.8	3.87	0.99	47.3	0.73	47.6	58.8	5.85	0.37	35	12819.13367 (antibody, human IgG1, lambda, L234A L235A) heavy: not shown light: ELTQDPAVSVALGQTVRITCSGGGSYDGSSYYGWYQQKPGQAPVTVIYNNNNRPSDIPDRFSGSSSGNTASLTITGAQAEDEADYYCGSYDRPETNSDYVGMFGSGTKVTVLGQPKANPTVTLFPPSSEELQANKATLVCLISDFYPGAVTVAWKADGSPVKAGVETTKPSKQSNNKYAASSYLSLTPEQWKSHRSYSCQVTHEGSTVEKTVAPTECS
0.738	0.00038	510000	0.558	0.00023	420000															12865.15377 (antibody, human IgG1, lambda, L234A L235A, V domains shown, humanized, IgG1 LALA, lambda) VH: EVQLLESGGGLVQPGGSLRLSCAASGFDFSDHGMQWVRQAPGKGLEYVGVIDTTGRYTYYAPAVKGRATISRDNSKNTLYLQMNSLRAEDTAVYYCAKTTCVGGYLCNTVGSIDAWGQGTLVTVSS VL: SYELTQDPAVSVALGQTVRITCSGGGSSSYYGWYQQKPGQAPVTVIYDDTNRPSGIPDRFSGSSSGNTASLTITGAQAEDEADYYCGGYEGSSHAGIFGSGTKVTVLG
						5	53	27												13112.13208 (antibody, human IgG1, lambda, L234A L235A, same as 13112.15380 but without the N-terminal SY of the light chain) heavy: not shown light: ELTQDPAVSVALGQTVRITCSGGSSDYYGWFQQKPGQAPVTVIYYNNKRPSDIPDRFSGSSSGNTASLTITGAQAEDEADYYCGNADSSVGVFGSGTKVTVLGQPKANPTVTLFPPSSEELQANKATLVCLISDFYPGAVTVAWKADGSPVKAGVETTKPSKQSNNKYAASSYLSLTPEQWKSHRSYSCQVTHEGSTVEKTVAPTECS
0.452	0.0011	2.5e+06	0.06	6.9e-05	1.2e+06															13112.15380 (antibody, human IgG1, lambda, L234A L235A, humanized, IgG1 LALA, lambda; whole antibody) heavy: not shown light: SYELTQDPAVSVALGQTVRITCSGGSSDYYGWFQQKPGQAPVTVIYYNNKRPSDIPDRFSGSSSGNTASLTITGAQAEDEADYYCGNADSSVGVFGSGTKVTVLGQPKANPTVTLFPPSSEELQANKATLVCLISDFYPGAVTVAWKADGSPVKAGVETTKPSKQSNNKYAASSYLSLTPEQWKSHRSYSCQVTHEGSTVEKTVAPTECS
2.22	0.0007	320000	0.542	0.00038	710000															12796.15376 (antibody, human IgG1, lambda, L234A L235A, V domains shown, humanized, IgG1 LALA, lambda) VH: EVQLLESGGGLVQPGGSLRLSCAASGFDFSSYTMQWVRQAPGKGLEWVGVISSTGGSTGYGPAVKGRATISRDNSKNTLYLQMNSLRAEDTAVYYCVKSVSGDAWSVDGLDAWGQGTLVTVSS VL: SYELTQDPAVSVALGQTVRITCSGGGSAYGWYQQKPGQAPVTVIYYNNQRPSDIPDRFSGSSSGNTASLTITGAQAEDEADYYCGSYDSSAVGIFGSGTKVTVLG
